Assay [1] addresses T1, NYESOpMHC (HLA-A*0201:NYESO1-9V), biotinylated recombinant complex (human).
T1 construct: also called NY-ESO-1 peptide-MHC complex
Briefly: SPR (ProteOn), biotinylated pMHC on NLC chip, PBS with Tween.

Assay [2] has as its target T2, NYESOAApMHC (HLA-A*0201:NYESO1-9VAA), biotinylated recombinant complex (human). In words: SPR (ProteOn), biotinylated NYESOAApMHC on the chip.
The target in assay [3] is T3, NYESOpMHC on T2 cells pulsed with NY-ESO-1-9V (157-165) peptide.
For assay [4], the target named is T1, NYESOpMHC (HLA-A*0201:NYESO1-9V), ….
Assay [5] concerns the target T2, NYESOAApMHC (HLA-A*0201:NYESO1-9VAA), ….
The target of assay [6] is T4, EBNApMHC (HLA-A*0201:EBNA-1), biotinylated recombinant complex (human; Epstein Barr virus). In words: SPR (ProteOn), biotinylated EBNApMHC on the chip.
In assay [7] the target is T4, EBNApMHC (HLA-A*0201:EBNA-1), ….
The target in assay [8] is T3, NYESOpMHC on T2 cells pulsed with …. Briefly: flow cytometry on T2 cells pulsed with NY-ESO-1-9V (157-165) peptide. (In general: In flow cytometry, cells or beads pass a laser one at a time.)

This note sets out measurements from patent US20230243070A1 (Molecular Partners, published 2023).

Like-named read-outs stand apart in the source and are kept apart here.

B1: DARPin® protein #21 (designed binder)
chain: MRGSHHHHHHGSDLGKKLLQAARAGQLDEVRELLKAGADVNAKDLIGVTPLHLAAFSGHLEIVEVLLKASADVNAKDVSGRTPLHVAAKHGHLEIVEVLLKAGADVNAKDLIGFTPLHLAAQFGHLEIVEVLLKAGADVNAQDKSGKTPADLAARAGHQDIAEVLQKAA
B1: the Kd (usually the equilibrium constant for the complex coming apart) in assay [1] turned out to be 0.861 nM. Besides, the binding result in assay [2] is given as “no binding”. Moreover, a half-maximal response in assay [3] (EC50) required 4.5 nM. For the same molecule, in assay [4], the koff (commonly the rate constant with which the complex falls apart) amounted to 0.000473 s⁻¹ and the kon (as a rule, the rate constant with which the complex forms) was found to be 549000 M⁻¹ s⁻¹. Besides, in assay [5], the “KD (fit header over a trace without response)” value was 0.846 pM, the “Ka (fit header over a trace without response)” value is 8.23e+06 M⁻¹ s⁻¹ and the “kd (fit header over a trace without response)” value amounted to 6.97e-06 s⁻¹. The binding result in assay [6] was “no binding”. In assay [7], the “KD (fit header over a trace without response)” value came to 3.05 mM, the “Ka (fit header over a trace without response)” value worked out at 2.78e-08 M⁻¹ s⁻¹ and the “kd (fit header over a trace without response)” value is 8.5e-11 s⁻¹.

B2: BP DARPin® protein #21/#22 (designed binder)
chain: GSDLGKKLLQAARAGQLDEVRELLKAGADVNAKDLIGVTPLHLAAFSGHLEIVEVLLKASADVNAKDVSGRTPLHVAAKHGHLEIVEVLLKAGADVNAKDLIGFTPLHLAAQFGHLEIVEVLLKAGADVNAQDKSGKTPADLAARAGHQDIAEVLQKAAGSPTPTPTTPTPTPTTPTPTPTGSDLGKKLLQAARAGQLDEVRELLKAGADVNAKDAIGFTPLHLAAFSGHLEIVEVLLKAGADVNAKDVAGYTPLHVAALYGHLVIVEVLLKAGADVNAKDKAGETPLHLAAFAGHLEIVEVLLKAGADVNAQDKSGKTPADLAARAGHQDIAEVLQKAA
On to B2, for which, in assay [8], the EC50 – broadly, the concentration at which the effect is half-maximal – is 1.4 nM.
